# Source: patent US20110076265A1 (POMONA RICERCA S R L, published 2011)
# B1: Fab49 (human monoclonal Fab fragment produced by bacterial clone INF49) (Fab, V domains shown)
# VH: LESGGGLVQPGGSLRLSCAASGITFSSYAMSWVRQAPGKGLEWVSTVNSGGGSTYYGDSVRGRFTISRDNSKSTLYLQLNSLRAEDTAIYYCAKDKGRPIFGLVTPSYYMDVWGNGT
# VL: ELTQSPSSLSASVGDSVTITCRTSERISTYLNWYQQKPGKAPRLLVSGASTLQGGVPSRFSGSGSGTAFTLTINSLQPEDFATYYCQQSYSTPLTFGGGT
# Experiments:
# [1] = target: T1, H3-subtype hemagglutinin of influenza A virus A/Aichi/2/68 (H3N2) (influenza A virus A/Aichi/2/68 (H3N2), UniProt P03437 17-566); assay: immunofluorescence on fixed, permeabilized infected cells
# T1 construct: also called A/Aichi/2/68 (ATCC VR-547)
# [2] = target: Hemagglutinin of influenza B virus B/Lee/40 (influenza B virus B/Lee/40, UniProt P03460 16-584); assay: as above
# [3] = target: HA protein (H1-subtype hemagglutinin) of influenza A virus A/PR/08/1934 (influenza A virus A/PR/08/1934 (H1N1), UniProt P03452 18-565); assay: immunofluorescence on fixed, permeabilized infected cells, Fab49 at 100 µg/ml
# [4] = target: H1-subtype hemagglutinin of influenza A virus A/Wilson-Smith/33 (influenza A virus A/Wilson-Smith/33 …, UniProt P03454 18-565); assay: ELISA, sequential dilutions of purified Fab on infected cell lysates
binder,measurement,setting,value
B1,binding result,[1],no binding (tested: 100 µg/ml)
same,binding result,[2],no binding (tested: 100 µg/ml)
same,binding result,[3],binds
same,binding result,[4],binds
